# According to the DeepSol protein solubility set:
# Experiment: soluble on expression in E. coli; label from the status in PepcDB or PDB records
row,Sequence,soluble on expression in E. coli
1,MGSDKIHHHHHHMDPRLLEYYNRELSYLRETGAEFAARHPKVAARLGMQGTDIADPYVERMVEAFSFLTARTQLKIDAEFPRFTQRLLEVVSPNYVTPTPSMSVAQLHPDTEEGDLAKGFTVPRDTAFFSAIPEGESTACQFRSSQDVTLWPLAIEEARLTAAPPDMPALHRYLPANIHVAGALRITLRTFGELTFSQLAGLDRLPFYLCGEERTASHLLELLHTSAIAPLAGIPGHFDGALDVNLQQPVMYEGLEPDQGLLPLAWNVFHGHNLLHEYFACPERFYFFTPTGLSAGLQKIDGGVAEIVILLNRLPPDWLIHQTNAAQFSLFCTPVINLFPRVTARIDVTHSTTEQHLVVDRTHPLDYEVFSVQEVEGLETDTTRKMAFRPLYHTRNNDEGNHGRYFSLRREPRRLSENARRYGTRTPYTGSEVFLSLVDQYEAPYPENLRHITITAMVTNRDLPCLIARNGRDDLTVDAAIPVAGVGLIRPPRSPQPPMAEREMAWRLIRQLSFNYLPLADLDHRTGGQALRDLLNLFIPAHDSPQSRQVRSLIGCKTTPVTRRLPGSGLLVYGRGVSCELTVDEEGFSGISPYLFGLVLEHYIARHVSINTFSQMTLHSMQRGKIMTWPVRAGQRGSV,not soluble
2,MGSDKIHHHHHHMDPRSEVLLRQAELFQGPLLIAGAPADDLLGQLPQAQAWTWHAGDQAMLESRFAGRSHYGVEAPEAAFDSAVLFLPKSRELAAYLLNALASRLAGRELYLVGEKRGGIEGAAKQLQAFGKPRKLDSARHCQLWQVTIDQAPQAKPLESLAERFELALEDGPLQVVSLPGVFSHGRLDRGTALLLKHLDGLPGGHMLDFGCGAGVLGATLKRRYPQSRVTLLDVDAFAVAASRLTLAANGLEGEVISGDGIDAAPTELSLILSNPPFHTGVHTNYQASENLLKKSAVHLRKGGEMRLVANSFLRYQPLIEGALGNCQVRDEADGFRIYQATRG,not soluble
3,MGSDKIHHHHHHMDQKALSMFAHLSQTLHFGKTALAHHISPSTLSRAIQRLEDEVGGELLHRDNRTVVLTDVGKKFKIYAEQQLEQWHSFKQSLDHKQAALTGKLHIYCSVTAAYSHLPPLLERFRARHPLVEIMLTTGDAADALEQVQNQSVDFAIAAAPENLPRSVYFHHLDTIALTVIAPTMTCKVQQQLSQKVLTWSEIPIILPEHGAARKRFELWYRKKQQGKPTIYATVSGHEALVSMVALGCGVGIVPQVVVDNSPVKDRVSNLENIGDIEPFELGVCCLNQAKAQPLIKAFFSSIV,not soluble
4,MGSDKIHHHHHHMDSKHSMISLKQKLSGLLDVIPKQSEIIYADYPLYGNVGDLFIMKGTEAFFKEHGIRVRKRWNPDNFPIGRKLDPNLIIVCQGGGNFGDLYPYYQGFREKIVQTYPNHKIVILPQSIYFQNKDNLKRTAEIFSKHANLHIMTREKASYATAQAYFTTNHIQLLPDMAHQLFPVIPTQQPSNQKLRFIRTDHEANQALQEHAEAESYDWRTVLSASDRRTIAFLQTLNVLNKKAGNPLPIAYIWEKYSDYIVQKAIRFFSRYESVETSRLHGHILSSLLQKENTVIDNSYGKNANYFHTWMEGVPSTRLIQHASKKENLPAHM,not soluble
5,MGSDKIHHHHHHMDTFHLMKVYIAVAEEQGFSAASRRLNMSAPTVTRAVAHLEETLKVKLLNRTTRYVRMTEAGARYLEDAKRILHDVKVANEAALGINATPQGKISVTAPVLFGQQFVLPTITDYLVRYPQTQVNAVFLDRVVNLLEEGHDVGIRIGELHDSSMRAKKVGNVRLILVASPEYLAKNGIPKNCQELAQHTLIAANTGSLNPDWQFLVNKKNQTIKINPRLTVTTNQAAINAAKNGLGITRIISYQVAEELKNNKLKILLENFEYPAKPINIVHREDKFSSAKVRSFIDLLAENLQTNSALN,not soluble
6,MGSDKIHHHHHHMDYRKIIKEIGRGKNHARDLDLDTARGLYTRMLNGDVPDLEMGSILMALRIKGEGEAEMLGFYEAMQNHTIKLTPPADRPLPVVIPSYNGARKQANLTPLLAILLHKLGFPVVVHGVSEDPTRVLTETIFELMGIIPTLHGGQAQAKLDGRQPVFIPVSALCPPLEKQLAMRWRMGVRNSAHSLAKLATPFAEDAALRLSSVSHPEYVPRVATFFSRIGGRALLMHGTEGEVYANPQRCPQISLIDSRGVQVLHERQSDTYDEPLSLPATKDPEITARWIERCLAGHEPVPQSLKTQMACCLVATGEAATLEDGLARVEQAFSE,not soluble
7,MGSDKIHHHHHHMEAEIELKLFFPENKREALVSLLNSLPHSDAKGAIHLTNSYYDTPDLQLRRWDMGLRIRGRDGQFEQTIKTAGTVVGGVHSRPEYNIDIDQAKVNLSLFPTEIWPEGAEIGPVQDALVSLFDTDFTRMSWHIYLDESLVEVALDIGSISANGQCEPICELEFELLAGDAQALLALAERVTEQIPARLGRASKAQRGYRLAAMASPLQLDTLAFIALPKKGTPKQALVTLLETGLDRWQLLEEMLLESRQAARQLPLLGYRLRACIRLLRCTLAQFSLLDDKLLQAFDAIESQLSFVDKGLSLCELLDGDGALLSNLSEPEGLLDAVRHELAALEMPQKIDAMLNHVTYGQLQVRLVSLLMAVNAGQVYISEQQSLQAFADRLQEASWQQIVDLMPSNAELSSEDYQSFAKALDESILVGVAYGELYKHKSRDQFRAPWQDLVLGIRTLGAYHSLRQTAATQGRDIDDWLDSKEQSLLFAMEHSRRSALKVQPYWR,not soluble
8,MGSDKIHHHHHHMEDLQRLYPIGIQTFSKIREGNFLYVDKTEYVYRMTHSASSYMFLSRPRRFGKSLLTSTLHSYFSGREELFRGLAMEKLEKEWIQYPVLHFDMSMAKHVDKDKLMNLLDFMLTEHERTLGIDAAGTDPNLRLTNLIKRAYEQTGRKVVVLIDEYDAPLLDVVHERENLGVLRDVMRNFYSPLKACDPYLRYVFLTGITKFSQLSIFSELNNIKNISMDEPYAAICGITENEILTQMKEDVDRMAVKLNITAEEVLAKLKENYDGYHFTYPSPDIYNPFSLLNAFADGKFNSYWFGSGTPTYLIKMLDKFGVEPSEIGNKLAAVEEFDAPTETMSSITPLLYQSGYVTIKDYDKELELYTLDIPNKEVRVGLMRSLLPYYVTNDTREATNMVAFISRDIR,not soluble
9,MGSDKIHHHHHHMEEFEGEAIVEAENVVSIMLRREAAERADEILHFSYWSGEIKELDAPGYLDRWQKKCYHATCSLDEGEILLVVGPPGSGKTTFIAEAARKLSEEERVWVTSNTNIAVDNVLEKLERALRIGHPSKITAGVRRHSVEYNLLSGIRFSDYREYASKVAEAYREIARIQNDMIRKGKIVVGSTILKGMMSALKNYDFDTVIIDEASNTCISTALLALEKAEKAVVVGDPYQLPPVYEVGGHKAAKFSAYNFLINIYGKNLWLRRHYRSNAKIAEFAARHVYGFLEIDEKCRRIKIEPCKTTIPEVGDPEKPLVFIDCNGVERREGRSKVNEEEAEVVAMIAEELAECVGEENVGVITPYVKQAELIRGILSEFGVMVEVSTVHSYQGREKDVVIYSITATGNPYFASEKRLFNVALTRARKKFIAVGNSKALEGKNLLLTRFMVAAIKEGGFVRLR,not soluble
10,MGSDKIHHHHHHMEEIKEQNNRLFLLLSIMIMEFSNAKTESDILQGLLNLVRKVVDIKEVVLVDENKRKIWGRDIDIKRFEEFIDWSIRQSNPVFVEDELGYVGIVPVVKQDRMFGSLIVLLNHQPSMEETEIFKVLSFLSAVVLENIKLYRELEETYNYVNVILNGLPEGIFVYSNGEIKFQNEKFKEENFPDEVLRKAISLSEEAISLRTQRVGEVISGEEFFSITSIPLILGSEVQALTIVENVTESKELERLKRIDRMKTEFIANISHELRTPLTAIKAYAETIYNSLGELDLSTLKEFLEVIIDQSNHLENLLNELLDFSRLERKSLQINREKVDLCDLVESAVNAIKEFASSHNVNVLFESNVPCPVEAYIDPTRIRQVLLNLLNNGVKYSKKDAPDKYVKVILDEKDGGVLIIVEDNGIGIPDHAKDRIFEQFYRVDSSLTYEVPGTGLGLAITKEIVELHGGRIWVESEVGKGSRFFVWIPKDRAGEDNRQDN,not soluble
11,MGSDKIHHHHHHMEEIKFPTNESGLCMNEKGVPWEDLKIVQAIADSGSLAGAGRTLGISHATVFRRLGALESRLGVRLFERHRTGYVPTLAGDDLATTAARVALDIEAVERRLMGRDARLSGTLRVTTTDTLLMGMLSDELAGFQRTYPHIVLEVEVSNRTYDLSRRDADVAIRPTSAPPETLIGRQVGQIAQAVYVSRCHRETSGWVGPDPHLGYPVLERWMARQGVDAQCRYHVDSMLGMLAGVRSGMGRGVLPCYLADMADDLVRASEPLPELQTELWLLTHPDLRNTARVQALFAYLSDSLKARQASLLGTMAAS,not soluble
12,MGSDKIHHHHHHMEENKQTLYNDELLDILPDGVIIFNISGEVIQLNRQALTELHVHSSVNAMMPLPTNILFKLLNNKEDILSVILEKIRQGEQTYSLSEHTFMQEQVDYTQFPIRGDFATIKEDGNLKKILFFFRNITVELTQEYILNTALQRTRIYPWYYDINRSEFTLDNRYFEHLGISAGENNTLTMEEYVNMIHPDDRQAMADAFIVQLSGMETFDKSVPFRLHRGDGTWEWFEGQSTYIANISGHPYRLVGICMSIQEYKDIENTLIEARKKAEESDRLKMAFLANMSHEIRTPLNAIVGFSDVIGSTYDELSEEERADFVRLISINSEHLVRLIDDVLDLSKIESNTIKFTFTDCSLRSLMIDVEKEQTMKPISEIEIRALLPNEDVYINTDATRLKQVISNFINNARKFTEKGYIHFGYAVDSVDASSVHVFVEDTGSGIPKECQKEIFDRFYKVDTFKQGTGLGLSICKTIVEHLQGDISVESEMGKGSRFIVTLPFERQTED,not soluble
13,MGSDKIHHHHHHMEENYRRYPIGIQNFEQLRNRNCVYVDKTELVYRLANTDSVYFLSRPRRFGKSLLVSTLEAYFQGKKDLFKGLAMERLEKDWNVYPVFHIDFSLTKYTTLFDLQEQLNLFLLRCEKVYGAEKEEKTPAARLQGMIRRAYEQTGLPVVVLIDEYDAPLLDSNSNIPLQQELRNELRKFFSPLKGLGQYLRFLFITGISKFSQMSIFSELNNLKNISMRDDFSAICGITERELLDELRPDIERMALANGETYEAACAHLKRQYDGYHFSKHCEDIYNPFSLFNAFDAKEYKNFWFSTGTPTFLIDLLQETDFDVRQLEGVEATDEQFDAPTERVTSPIPVLYQSGYLTIKGYDPEFQVYRLAYPNGEVRKGFIESLLPAYLELPGQSSTFYVVSFIRDLRKGDIESCLERTRSFFASIPNDLENKTEKHYQTIFYLLFRLMGMYVDSEVKSAVGRADVVIKMQDAIYVLEFKYDGTAREALAQINSRLYAVPYRKDGRRIVKVGINFDSATRTIGDWVIEVEDTVDNL,not soluble
14,MGSDKIHHHHHHMEFFSTRNKILSINPNGLRSTSIQLRERIWNVFYKEEYDYYDTLEYTSYTTGIEDMMLEMGIKYEFPANKIYKNQNAEKLHKHVVQCEGMWYRIYDFIEKYLRVTDSEKTQRLTIEFNRILEEEVAPYRILNGLVVPIIGKSELNSIGETIDLEYESVSKHMTKALELYSDRKKPDYENSVKESISSVESMCSIITGLSGGAATLGNTLKKLKENGVNIHPALENAFKQLYGYTSDSGGIRHGSIEFVNVASEDAKYMLVSCSAFVNYLTEKWIKYNLK,not soluble
15,MGSDKIHHHHHHMEGKVDVLLTWLKKSDKFYIAPNISICESPETGRGIVLSHGSIRKNDIIVSVPSSKQLNFHTILYHISKFNKELNIPGITIDRKPINYEDNIIEAENKAWADPRYGLYSELSKEFLLSLSSFQLVSFYILVENFLLPKWTHNEIYSDWKPFFDVWPSMEELRSIPAIWNCDPNSRYHSLIEYLPAASRKHMARISGLVREDWETISEVVLKWNEIYGSLSCTKNSDKFTSDELFSLFVHVYFIINSRCLYAKIPLKIEDSPSNFTLVPYVDFMNHICESDLHCYPQLSPQLRSEGENIIGIGQFTIRCGDHLYDNINEELFLNYGAHSNDFLLNEYGFVVDGNKWNYLDISDEIIELIDDDKKEVKTFLLEHDYWGDYTINETDISYRIFVALNYYVTRDERRVRKFIEGYISEDYFKPKISSVLKELLVSLTAKYTKTLSELTEKVSNLENNLCLQNLITIYKGYIKILTQHLQDLQS,not soluble
